Results on 13 molecules are retold here after patent US20180009892A1 (EUREKA THERAPEUTICS, published 2018).

Changes are numbered by the printed parent chain.

For assay [1], the target named is T1, ROR1 extracellular domain Fc-fusion, dimer (human, UniProt Q01973 30-406).
T1 construct: also called ROR1 dimer; hROR1 dimeric ECD-Fc fusion protein; not shown: Fc part
In words: SPR, immobilised ROR1 dimer, antibody injected, 1:1 model; apparent affinity. The method, then:
(§1) The binding affinities of ROR1 extracellular domain dimer and monomer for anti-ROR1 antibodies were determined by surface plasmon resonance (SPR). ROR1 extracellular domain Fc-fusion, “dimer,” and ROR1 extracellular domain Fc fusion:Fc heterodimer, “monomer,” are the dimer and monomeric forms of ROR1 used for affinity analysis, respectively. Briefly, ROR1 dimer and monomer were directly immobilized to a CM4 chip using an amine coupling kit and 100 mM ethylenediamine in 100 mM Sodium Borate buffer, pH 8.0 as the blocking reagent. Approximately 100-150 RU of ROR1 dimer and monomer were immobilized on separate flow cells and an un-derivatized flow cell was used as a reference control. […] Dissociation was followed for 180 seconds. The association constant, dissociation constant, and affinity of each anti-ROR1 antibody was calculated using the Biacore T200 Evaluation Software 1:1 binding model.
(§2) Sensorgrams were normalized to 100 RU using the “binding stability point” at the end of the association phase but before the dissociation phase.
In general terms: In SPR one partner is held on a chip, and binding of the other changes the refractive index at the surface.

The target of assay [2] is T2, ROR1 extracellular domain Fc fusion:Fc heterodimer, monomer (human).
T2 construct: Heterodimer of one ROR1 ECD-Fc chain and one Fc chain; also called ROR1 monomer; hROR1 monomeric ECD-Fc fusion protein; not shown: Fc part; Fc alone
Nature of the assay: SPR, immobilised ROR1 monomer, antibody injected, 1:1 model. On the procedure:
as §1, §2

Assay [3] concerns the target T1, ROR1 extracellular domain Fc-fusion, …. Nature of the assay: SPR, immobilised ROR1 dimer, antibody injected, 1:1 model. On the procedure: as §1, §2
The target in a further assay is T3, human ROR2-ECD (human, UniProt Q01974 34-403).
T3 construct: extracellular domain; also called hROR2
In words: protein ELISA, phage.

Assay [4] addresses T4, human ROR1 extracellular domain (ECD) protein (human, UniProt Q01973 30-406).
T4 construct: also called hROR1-ECD; human ROR1-ECD
Nature of the assay: competitive phage ELISA: soluble ROR1 against ROR1-coated plate. The method, then:
Purified phage antibodies were first diluted serially in PBST buffer, and tested for binding to a ROR1-coated plate. The dilution that gave 50-80% saturating signal was used in the solution binding assay in which phage were first incubated with increasing concentration of ROR1 for one to two hours, and then transferred to a ROR1-coated plate for 10-15 minutes to capture the unbound phage.
For orientation: In an ELISA, binding on a coated surface is turned into a signal by an enzyme label.

T3 sequence (Q01974 34-403): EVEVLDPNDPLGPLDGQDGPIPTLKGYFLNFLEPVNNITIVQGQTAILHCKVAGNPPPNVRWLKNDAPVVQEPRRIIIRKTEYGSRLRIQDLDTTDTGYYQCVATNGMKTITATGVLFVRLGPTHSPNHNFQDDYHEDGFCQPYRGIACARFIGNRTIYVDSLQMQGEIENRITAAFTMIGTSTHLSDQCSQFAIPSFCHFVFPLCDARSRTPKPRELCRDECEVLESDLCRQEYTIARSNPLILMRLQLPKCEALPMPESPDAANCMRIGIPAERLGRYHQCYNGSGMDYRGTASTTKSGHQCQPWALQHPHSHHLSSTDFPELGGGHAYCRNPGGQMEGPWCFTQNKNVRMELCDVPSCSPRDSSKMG
T4 sequence (Q01973 30-406 limits assumed): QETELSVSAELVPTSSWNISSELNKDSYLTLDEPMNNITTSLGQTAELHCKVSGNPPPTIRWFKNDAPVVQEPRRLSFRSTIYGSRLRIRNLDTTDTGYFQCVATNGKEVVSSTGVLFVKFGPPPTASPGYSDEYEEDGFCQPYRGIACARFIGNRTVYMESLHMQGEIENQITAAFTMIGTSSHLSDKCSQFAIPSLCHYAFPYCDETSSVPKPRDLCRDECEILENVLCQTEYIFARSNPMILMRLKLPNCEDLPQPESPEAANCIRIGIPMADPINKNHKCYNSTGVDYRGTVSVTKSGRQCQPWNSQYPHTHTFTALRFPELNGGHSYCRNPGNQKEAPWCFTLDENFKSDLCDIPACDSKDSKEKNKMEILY
T2 sequence (Q01973 30-406, one chain of several): as the sequence (Q01973 30-406 limits assumed) above
T1 sequence (Q01973 30-406): as the sequence (Q01973 30-406 limits assumed) above

B1: Antibody 601-147 (antibody, V domains shown)
VH: QMQLVQSGAEVKKPGASVKVSCKASGYTFSRYYIHWVRQAPGQGLEWMGLINPGGGSTNYAQKFQGRVTMTRDTSTNTVYLELSSLRSDDTAVYYCARDYGTIDARRFDFWGQGTLVTVSS
VL: QSALTQPPSASGTPGQRVTISCSGSSSNIGSNYVYWYQQLPGTAPKLLIYRNNQRPSGVPDRFSGSKSGTSASLAISGLRSEDEADYYCAAWDDSLSGYVFGTGTKVTVL
On to B1, for which the Kd in assay [1] came to 0.9 nM. Further, in assay [2], the Kd came to 2.8 nM, the koff turned out to be 0.0017 s⁻¹ and the kon was 590000 M⁻¹ s⁻¹. In assay [3], this molecule had a koff of 0.00063 s⁻¹ and a kon of 680000 M⁻¹ s⁻¹.

B2: Antibody 601-130 (antibody, V domains shown)
VH: EVQLVETGGGLVKPGGSLRLSCEASGFSLSSYSMNWVRQAPGKGLEWVSSISSSSTHIYYADSLKGRFTISRDNAKNSLFLQMDNLRAEDTAVYYCARATIGFDYWGQGTLVTVSS
VL: QSVLTQPPSVSGAPGQRVTISCTGSSSNIGAGYDVHWYQQLPGTAPKLLIYGNSNRPSGVPDRFSGSKSGTSASLAITGLQAEDEADYYCQSYDSSLSGYVFGTGTKLTVL
As for B2, the Kd in assay [1] was found to be 2.2 nM; in assay [2], 4.1 nM. The results for the dissociation rate constant (koff) in assay [2] and in assay [3] were 0.0018 s⁻¹ and 0.0012 s⁻¹, respectively. The kon worked out at 450000 M⁻¹ s⁻¹ in assay [2] and 520000 M⁻¹ s⁻¹ in assay [3].

B3: P601-128 (scFv, V domains shown)
VH: EVQLVQSGAEVKKPGESLKISCKGSGYSFSRYWIGWVRQMPGKGLEWMGIIYPRDSDTRYSPSFQGQVTISADKSISTAYLQWSSLKASDTAMYYCATPVVTAGAFDIWGQGTMVTVSS
VL: DIQMTQSPSSVSASVGDRVTITCRASQGISSWLAWYQQKPGKAPKLLIYAASSLQSGVPSRFSGSGSGTDFTLTISSLQPEDFATYYCQQANSFPLTFGGGTKVEIK
On to B3, for which the binding result with human ROR2-ECD is recorded as “no binding”. In assay [4], this molecule had a half-inhibitory concentration (IC50) of 263 nM.

B4: P601-108 (scFv, V domains shown)
VH: QLQLQESGPGLVKPSETLSLTCTVSGGSISSNSYYWGWIRQPPGKGLEWIGSIYYSGSTYYNPSLKSRVTISVDTSKNQFSLKLGSVTAADTAVYYCARHDGTDAFDIWGQGTTVTVSS
VL: QSVVTQPPSVSAAPGQKVTISCSGSSSNIGKNYVSWYQQFPGTAPKLLIYDNNERPSGIPARFSGSKSGTSATLGITGLQTGDEADYYCATFDTSLWAAVFGGGTKLTVL
For the molecule B4, the binding result with human ROR2-ECD is “no binding”. The same molecule gave an IC50 in assay [4] of 0.76 nM.

B5: Antibody 601-37 (antibody, V domains shown)
VH: EVQLVQSGAEVKKPGASVKVSCKASGYTFNNYGFSWVRQAPGQGLEWMGWISVYNGNTNYAQKLQGRVTMTTDTSTSTAYMELRSLRSDDTAVYYCARDYYSDSSGYWDDAFDIWGQGTMVTVSS
VL: AIRMTQSPSSLSASVGDRVTITCQASQDISNYLNWYQQKPGKAPKLLIYAASSLQSGVPSRFSGSGSGTDFTLTISSLQPEDFATYYCQQSYSTPFTFGPGTKVDIK
As to B5, the Kd in assay [1] came out at 1.7 nM. In assay [2], this molecule came in with a Kd of 3 nM, a koff of 0.0027 s⁻¹ and a kon of 920000 M⁻¹ s⁻¹. In assay [3], the off-rate (koff) was 0.0018 s⁻¹ and the on-rate constant (kon) amounted to 1e+06 M⁻¹ s⁻¹.

B6: Antibody 601-141 (antibody, V domains shown)
VH: B5 VH with E1Q, V5Q, Y27H, N30S, F34I, V53T, M120T
VL: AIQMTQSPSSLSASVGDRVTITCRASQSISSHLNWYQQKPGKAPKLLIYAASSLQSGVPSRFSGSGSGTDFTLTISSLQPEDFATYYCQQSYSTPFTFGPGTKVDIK
B6: the Kd in assay [1] turned out to be 11.9 nM. In assay [2], this molecule gave a Kd of 20.6 nM, a koff of 0.026 s⁻¹ and a kon of 1.2e+06 M⁻¹ s⁻¹. In assay [3], this molecule had a koff of 0.022 s⁻¹ and an association rate constant (kon) of 1.8e+06 M⁻¹ s⁻¹.

B7: Antibody 601-100 (antibody, V domains shown)
VH: EVQLVQSGGGVVQPGGPLRLSCAASGFTFSSYSMNWVRQAPGKGLEWVSSISSSSSYIYYADSVKGRFTISRDNAKNSLYLQMNSLRAEDTAVYYCARGLGGWTHDAFDIWGQGTMVTVSS
VL: QSALTQPASVSGSPGQSITISCTGTSRDVGGYDYVSWYQQYPGNAPKLMIYDVSRRPSGVSHRFSASKSGNTASLTISGLQTEDEADYYCSSYTSSSTRVFGGGTKVTVL
On to B7, for which the Kd in assay [1] was determined as 3.9 nM; in assay [2] it was 8.2 nM. Further, the off-rate constant (koff) in assay [2] is 0.0028 s⁻¹; in assay [3] it was 0.0017 s⁻¹. In addition, the kon in assay [2] was determined as 350000 M⁻¹ s⁻¹; in assay [3], 440000 M⁻¹ s⁻¹.

B8: Antibody 601-28 (antibody, V domains shown)
VH: B7 VH with G10D, V11L, P17S, M116T
VL: QSALTQPASVSGSPGQSITISCTGTSSDVGGYNYVSWYQQHPGKAPKLMIFDVSNRPSGVSNRFSGSKSGNTASLTISGLQAEDEADYYCSSYTSSSTLFGGGTKLTVL
Take B8: in assay [1], the Kd worked out at 28.5 nM. In assay [2], this molecule registered a Kd of 36.4 nM, a koff of 0.012 s⁻¹ and an on-rate (kon) of 320000 M⁻¹ s⁻¹. In assay [3], the koff stood at 0.0097 s⁻¹ and the kon came out at 340000 M⁻¹ s⁻¹.

B9: Antibody 601-103 (antibody, V domains shown)
VH: B7 VH with G10D, V11L, P17S, M116T
VL: QSVLTQPASVSGSPGQSITISCTGTTSDVGGYNYVSWYQQHPGKAPKLMIYDVSKRPSGVSNRFSGSKSGNTASLTISGLQAEDEADYYCSSYTSSSTDVFGTGTKLTVL
With B9, the results for the Kd in assay [1] and in assay [2] were 20.7 nM and 40.2 nM, respectively. The values for the koff in assay [2] and in assay [3] were 0.005 s⁻¹ and 0.0035 s⁻¹, respectively. Besides, the kon in assay [2] turned out to be 120000 M⁻¹ s⁻¹; in assay [3], 170000 M⁻¹ s⁻¹.

B10: Antibody 601-119 (antibody, V domains shown)
VH: B7 VH with E1Q, V11L, Q13K, P17S, S30G, S31T, M116T
VL: QSALTQPASVSASPGQSITISCTGTSSDVGGYNYVTWYQQHPGKAPKLMIYDVSKRPSGVLDRFSGSKSGNTASLTISGLQAEDEADYFCSSYTSSSTLVFGGGTKLTVLG
With B10, the figures for the Kd in assay [1] and in assay [2] were 178 nM and 407 nM, respectively. For the same molecule, the figures for the koff in assay [2] and in assay [3] were 0.095 s⁻¹ and 0.079 s⁻¹, respectively. Besides, the on-rate constant (kon) in assay [2] was 230000 M⁻¹ s⁻¹; in assay [3] it was 440000 M⁻¹ s⁻¹.

B11: Antibody 601-112 (antibody, V domains shown)
VH: B7 VH with G10D, V11L, P17S, M116T
VL: B8 VL with F51Y, N55K, S95G, S96R, L99V
As for B11, the Kd worked out at 1 nM in assay [1] and 4.6 nM in assay [2]. The koff in assay [2] stood at 0.0012 s⁻¹; in assay [3], 0.00032 s⁻¹. The figures for the kon in assay [2] and in assay [3] were 270000 M⁻¹ s⁻¹ and 340000 M⁻¹ s⁻¹, respectively.

B12: P601-4 (scFv, V domains shown)
VH: EVQLVQSGPGLVKPSGTLSLTCAVSGGSISSSNWWSWVRQPPGKGLEWIGEIYHSGSTNYNPSLKSRVTISVDKSKNQFSLKLGSVTAADTATYYCARDLWLGEWDLWGQGTLVTVSS
VL: QSVLTQPPSASGAPGQRVTISCSGGISNVGTNGVNWYQHLPGTAPKLLVDAMNQRPSGVPDRFSGSRSGTSGSLAITGLRSEDEADYYCATWDDSLSGVLFGGGTKLTVLG
In the case of B12, in the assay with human ROR2-ECD, the binding result was “no binding”. This molecule also gave a concentration for half-maximal inhibition (IC50) in assay [4] of 0.93 nM.

B13: Antibody 601-13 (antibody, V domains shown)
VH: EVQLVQSGAEVKKPGSSVKVSCKASGGTFSTFAINWVRQAPGQGLEWMGGVIPVSGTEDYSQKFQGRLSLTADESTGTAYMELSSLRSDDTAVYYCARDRSGRDWDYFDYWGQGTLVTVSS
VL: DIVMTQSPSSLSASVGDRVTITCQASQDISNYLNWYQQKPGKAPKLLIYDASNLETGVPSRFSGSGSGTDFIFTISSLQPEDIATYYCQQFDNLPYTFGQGTKVEIKR
As to B13, the Kd in assay [1] was 0.5 nM; in assay [2] it was 0.8 nM. Besides, the koff in assay [2] came out at 0.0014 s⁻¹; in assay [3], 0.00087 s⁻¹. The results for the kon in assay [2] and in assay [3] were 1.8e+06 M⁻¹ s⁻¹ and 1.6e+06 M⁻¹ s⁻¹, respectively.

The koff is the first-order rate constant of dissociation. The low end stands for slow dissociation, the high end for fast dissociation. Usually kon stands for a measure of how fast the partners come together. Read a high kon as faster complex formation. The term IC50 denotes the concentration needed to halve the response being measured. Low readings indicate inhibition by little substance, high ones a need for much substance.
